Measured values from US8349318B2, “Use of specifically engineered enzymes to enhance the efficacy of prodrugs” (The Board of Trustees of the University of Illinois, priority 2008, dated 2013).

What was measured:
[1] = system: Cc1cn([C@@H]2C[C@@H](O)[C@H](CO)O2)c(=O)[nH]c1=O; experiment: purified protein, by the assay type; details: other: Table 9; pH 7.5; 37.0 °C
[2] = system: Nc1ccn([C@@H]2O[C@H](CO)[C@@H](O)C2(F)F)c(=O)n1; experiment: purified protein, by the assay type; details: other: Table 9; pH 7.5; 37.0 °C
[3] = system: Nc1nc2c(ncn2[C@H]2C[C@H](O)[C@@H](CO)O2)c(=O)[nH]1; experiment: purified protein, by the assay type; details: other: Table 9; pH 7.5; 37.0 °C
[4] = system: T1, Cc1cn([C@@H]2C[C@@H](O)[C@H](CO)O2)c(=O)[nH]c1=O; experiment: Kinetic assay of nucleoside phosphorylation by R104Q-D133A dCK; type: biochemical, human; details: other: nucleoside 200 uM, 1 mM ATP
T1 construct: made in house

dCK R104L/D133A (Homo sapiens; D133A/R104L), sequence (chain, as listed by the source R104L D133A D133A R104L): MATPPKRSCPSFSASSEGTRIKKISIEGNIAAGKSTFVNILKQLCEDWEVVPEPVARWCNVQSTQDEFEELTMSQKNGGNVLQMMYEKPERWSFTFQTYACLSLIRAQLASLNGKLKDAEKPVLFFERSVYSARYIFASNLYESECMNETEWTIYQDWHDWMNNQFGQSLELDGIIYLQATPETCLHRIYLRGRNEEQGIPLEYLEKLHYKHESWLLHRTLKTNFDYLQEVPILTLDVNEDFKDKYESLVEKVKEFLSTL
Wild Type dCK (Homo sapiens), sequence (chain, as listed by the source): as the sequence (chain, as listed by the source R104L D133A D133A R104L) above, with L104R, A133D counted along it
R104Q-D133A dCK (Homo sapiens; D133A/R104Q), sequence (chain, as listed by the source R104Q D133A D133A R104Q): as the sequence (chain, as listed by the source R104L D133A D133A R104L) above, with L104Q counted along it

Substance | Km [1] [µM] | kcat [1] [s⁻¹] | Km [2] [µM] | kcat [2] [s⁻¹] | Km [3] [µM] | kcat [3] [s⁻¹] | kcat [4] [s⁻¹]
dCK R104L/D133A (Homo sapiens; D133A/R104L) | 17.8 ± 1.6 | 1.33 ± 0.01 | 33.8 ± 5.3 | 2.01 ± 0.08 | 2266 ± 823 | 3.66 ± 0.01 | –
Wild Type dCK (Homo sapiens) | – | – | 16.1 ± 3.5 | 0.39 ± 0.03 | 231.0 ± 20.0 | 2.60 ± 0.10 | –
R104Q-D133A dCK (Homo sapiens; D133A/R104Q) | – | – | – | – | – | – | 0.24
